The results in this text go back to PMC3667823.

This experiment deals with Recombinant HSP with AVI and HIS tag (16 kDa heat shock protein of Mycobacterium tuberculosis) (Mycobacterium tuberculosis) (UniProt P9WMK1). The experiment can be described thus: native MS.

In the case of “Recombinant HSP with AVI and HIS tag (16 kDa heat shock protein of Mycobacterium tuberculosis) (from UniProt P9WMK1 1-144) (natural protein)”, the stoichiometry N came out at 2.
